{"source": "paper PMC4381051", "binders": {"B1": {"name": "poly-GC 12 bp DNA (dsDNA)", "DNA 1": "GCGCGCGCGCGC", "DNA 2": "GCGCGCGCGCGC"}, "B2": {"name": "random 12 bp DNA, biotinylated (dsDNA)", "DNA 1": "GTACCACGGTAG", "DNA 2": "CTACCGTGGTAC"}, "B3": {"name": "random 12 bp DNA (dsDNA)", "DNA 1": "GTACCACGGTAG", "DNA 2": "CTACCGTGGTAC"}, "B4": {"name": "poly-AT 12 bp DNA (dsDNA)", "DNA 1": "ATATATATATAT", "DNA 2": "ATATATATATAT"}}, "key": {"Mst77F WT [1]": {"target": "T1, Mst77F WT (UniProt P16909 1-215)", "T1 sequence": "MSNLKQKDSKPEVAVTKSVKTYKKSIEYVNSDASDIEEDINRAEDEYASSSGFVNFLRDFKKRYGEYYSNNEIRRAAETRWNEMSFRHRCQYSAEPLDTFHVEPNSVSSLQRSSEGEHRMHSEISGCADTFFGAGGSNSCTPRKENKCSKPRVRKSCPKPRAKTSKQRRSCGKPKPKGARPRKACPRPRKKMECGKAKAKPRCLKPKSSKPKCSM", "assay": "FP"}, "Mst77F Δ110C [2]": {"target": "T2, Mst77F Δ110C (UniProt P16909 1-105)", "T2 sequence": "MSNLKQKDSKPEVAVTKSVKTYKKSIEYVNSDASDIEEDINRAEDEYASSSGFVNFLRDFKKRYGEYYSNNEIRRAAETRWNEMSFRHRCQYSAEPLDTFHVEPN", "assay": "pull-down"}, "[3]": {"target": "T3, Mst77F Δ110C;Mst77F Δ100N (Drosophila melanogaster?;Drosophila …, UniProt P16909;P16909 1-105;101-215, |)", "T3 sequence 1": "T2 sequence", "T3 sequence 2": "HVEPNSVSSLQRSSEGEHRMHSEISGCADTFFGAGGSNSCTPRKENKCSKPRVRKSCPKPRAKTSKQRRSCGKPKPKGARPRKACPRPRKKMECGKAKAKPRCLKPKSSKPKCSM", "assay": "pull-down"}, "Mst77F WT [4]": {"target": "T1, Mst77F WT", "assay": "FP", "remark": "listed apart in the source"}, "Mst77F CTD*": {"target": "T4, Mst77F CTD* (UniProt P16909, CTD sequence randomized)", "T4 sequence": "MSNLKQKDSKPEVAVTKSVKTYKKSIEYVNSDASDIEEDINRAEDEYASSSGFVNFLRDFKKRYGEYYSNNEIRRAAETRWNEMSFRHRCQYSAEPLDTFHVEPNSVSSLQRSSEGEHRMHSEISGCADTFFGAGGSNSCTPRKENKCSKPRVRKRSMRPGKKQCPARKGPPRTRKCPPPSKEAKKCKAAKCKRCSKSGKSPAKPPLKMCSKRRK", "assay": "FP"}, "Mst77F Δ110C [5]": {"target": "T2, Mst77F Δ110C", "assay": "FP"}}, "note": "Like-named read-outs stand apart in the source and are kept apart here.", "data": [{"binder": "B1", "values": [{"measurement": "Kd", "setting": "Mst77F WT [1]", "value": "170 ± 60", "unit": "nM"}]}, {"binder": "B2", "values": [{"measurement": "binding result", "setting": "Mst77F Δ110C [2]", "value": "no binding"}, {"measurement": "binding result", "setting": "[3]", "value": "binds"}]}, {"binder": "B3", "values": [{"measurement": "Kd", "setting": "Mst77F WT [4]", "value": "110 ± 50", "unit": "nM"}, {"measurement": "Kd", "setting": "Mst77F CTD*", "value": "60 ± 10", "unit": "nM"}, {"measurement": "binding result", "setting": "Mst77F Δ110C [5]", "value": "no binding"}]}, {"binder": "B4", "values": [{"measurement": "Kd", "setting": "Mst77F WT [1]", "value": "70 ± 30", "unit": "nM"}]}]}
